Experimental data reported in IntAct's records for PubMed 12540855.

B1: Histone-lysine N-methyltransferase SETD7 (Homo sapiens), Q8WTS6 (parent)
chain: MDSDDEMVEEAVEGHLDDDGLPHGFCTVTYSSTDRFEGNFVHGEKNGRGKFFFFDGSTLEGYYVDDALQGQGVYTYEDGGVLQGTYVDGELNGPAQEYDTDGRLIFKGQYKDNIRHGVCWIYYPDGGSLVGEVNEDGEMTGEKIAYVYPDERTALYGKFIDGEMIEGKLATLMSTEEGRPHFELMPGNSVYHFDKSTSSCISTNALLPDPYESERVYVAESLISSAGEGLFSKVAVGPNTVMSFYNGVRITHQEVDSRDWALNGNTLSLDEETVIDVPEPYNHVSKYCASLGHKANHSFTPNCIYDMFVHPRFGPIKCIRTLRAVEADEELTVAYGYDHSPPGKSGPEAPEWYQVELKAFQATQQK

Variants of: B1
Conditions: with h31_human H3C1, P68431

effect of a mutation on the interaction	Variant
decreasing interaction	Y245A
